A value given as a limit tells only on which side of the number the result lay.

Test in all cases: cell-based or functional assay
Test [1] addresses IL2 receptors (on lymphocyte populations of human PBMCs).
The target in test [2] is Chimeric antigen receptor containing a VL-VH scFv (VL and VH of antibody 17363N) recognizing T3 (HLA).
The target in test [3] is OT-I TCR (Ovalbumin(257-264)-specific) on CD8+ T cells of an OT-I TCR transgenic mouse (mouse). Conditions: scale: orders of magnitude higher potency than T5-IL2M6.

The substance “IL2M2: Human IL2-(GGGGS)4-human IL-2Ra-GGGGS-Fc (Fc fusion)” registered a potency in STAT5 phosphorylation on multiple lymphocyte populations, against IL2M0 (fold less potent than IL2M0) in test [1] of 100.

The substance “IL2M5: Fc-GGGGS-human IL2 (N88D, C125A) fusion (Fc fusion)” showed a potency in STAT5 phosphorylation on multiple lymphocyte populations, against IL2M4 (fold less potent than IL2M4) in test [1] above 100.

With “T3-IL2M6: HPV16E7(11-19)-GCGGS-(GGGGS)2-hB2m-(GGGGS)4-hHLA.A2-(GGGGS)4-Fc-(GGGGS)3-hIL2(H16A, F42A) (peptide-MHC)”, the frequency of viable CAR-T (eGFPPos) cells at day 3 of expansion (start 38%) in test [2] worked out at 36%.

The substance “T4-IL2M6: OVA(257-264)-GCGGS-(GGGGS)2-mB2m-(GGGGS)4-mH2Kb-(GGGGS)4-Fc-(GGGGS)3-hIL2(H16A, F42A) (peptide-MHC)” displayed an intracellular STAT5 phosphorylation in gated CD8+ T cells of OT-I splenocytes in test [3] of 2.

The record behind these values is US20250034224A1.
